Laboratory results published in patent US20180141988A1 (Pieris, published 2018).

Legend:
[1] = target: T1, human GPC3 on stably transfected SK-HEP-1 cells (human, UniProt P51654 25-554); test: MSD-based (ECL) cell binding assay on transfected SK-HEP-1 cells
T1 construct: whole, on cells; also called SK-HEP-1::human GPC3
Description: (§1) Binding of optimized lipocalin muteins of SEQ ID NOs: 5-16 to human, cynomolgus and mouse GPC3 compared to SEQ ID NOs: 3 and 4 was tested on SK-HEP-1 cells using an ECL format (FIG. 1). In this experiment, dilution series of lipocalin muteins were incubated on MSD plates coated with human, cynomolgus or mouse GPC3 overexpressing SK-HEP-1 cells.
(§2) SEQ ID NOs: 3, 4, 5, 7, 8, 9, 10, 12, 13, 14, 15 and 16 (using 1000 nM as starting concentration) were serially diluted at a 1:3 ratio down to the picomolar range in PBS/Casein. 20 μl of the dilution series were transferred to the SK-HEP-1-coated plates for 1 hour at room temperature.
(§3) To allow for detection and quantification of bound GPC3 specific lipocalin muteins, the residual supernatants were discarded and 20 μl of a mixture of rabbit anti scaffold antibody (2 μg/ml) and Sulfotag labelled anti rabbit antibody (5 μg/ml) prepared in PBS/casein was added to the wells and incubated for 1 h at RT. After washing, 35 μl surfactant-free reading buffer was added to each well and the ECL intensity of every well was read using a MSD reader.

[2] = target: T2, mouse GPC3 on stably transfected SK-HEP-1 cells (mouse, UniProt Q8CFZ4 25-553); test: as above
T2 construct: whole, on cells; also called SK-HEP-1::mouse GPC3; murine GPC3
T2 sequence (Q8CFZ4 25-553 limits assumed): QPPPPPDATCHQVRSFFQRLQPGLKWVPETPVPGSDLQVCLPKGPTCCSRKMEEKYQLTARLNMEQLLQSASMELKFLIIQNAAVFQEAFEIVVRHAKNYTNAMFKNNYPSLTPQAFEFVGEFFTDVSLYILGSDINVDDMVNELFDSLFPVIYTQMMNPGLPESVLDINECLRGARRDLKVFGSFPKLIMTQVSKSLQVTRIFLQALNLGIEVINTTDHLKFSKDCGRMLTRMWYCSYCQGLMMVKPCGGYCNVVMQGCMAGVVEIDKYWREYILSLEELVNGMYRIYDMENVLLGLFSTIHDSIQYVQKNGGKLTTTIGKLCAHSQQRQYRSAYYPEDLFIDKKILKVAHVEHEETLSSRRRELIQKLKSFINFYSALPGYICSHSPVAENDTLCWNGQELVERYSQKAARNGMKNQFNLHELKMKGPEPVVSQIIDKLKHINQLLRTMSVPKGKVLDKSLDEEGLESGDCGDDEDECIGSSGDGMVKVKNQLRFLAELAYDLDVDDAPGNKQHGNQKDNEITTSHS
Description: as §1, §2, §3

[3] = target: T3, cynomolgus GPC3 on stably transfected SK-HEP-1 cells (cynomolgus, UniProt A0A2K5VK50 24-553); test: as above
T3 construct: whole, on cells; also called SK-HEP-1::cyno GPC3; SK-HEP-1::cynomolugus GPC3
Description: as §1, §2, §3

[4] = target: T4, Human GPC3 (2119-GP; R&D systems), biotinylated (human, UniProt P51654 25-559, biotinylated using standard NHS chemistry); test: SPR (Biacore T200), biotinylated GPC3 captured on chip, mutein in flow
T4 construct: Bought protein; also called human Glypican-3
T4 sequence (P51654 25-559 limits assumed): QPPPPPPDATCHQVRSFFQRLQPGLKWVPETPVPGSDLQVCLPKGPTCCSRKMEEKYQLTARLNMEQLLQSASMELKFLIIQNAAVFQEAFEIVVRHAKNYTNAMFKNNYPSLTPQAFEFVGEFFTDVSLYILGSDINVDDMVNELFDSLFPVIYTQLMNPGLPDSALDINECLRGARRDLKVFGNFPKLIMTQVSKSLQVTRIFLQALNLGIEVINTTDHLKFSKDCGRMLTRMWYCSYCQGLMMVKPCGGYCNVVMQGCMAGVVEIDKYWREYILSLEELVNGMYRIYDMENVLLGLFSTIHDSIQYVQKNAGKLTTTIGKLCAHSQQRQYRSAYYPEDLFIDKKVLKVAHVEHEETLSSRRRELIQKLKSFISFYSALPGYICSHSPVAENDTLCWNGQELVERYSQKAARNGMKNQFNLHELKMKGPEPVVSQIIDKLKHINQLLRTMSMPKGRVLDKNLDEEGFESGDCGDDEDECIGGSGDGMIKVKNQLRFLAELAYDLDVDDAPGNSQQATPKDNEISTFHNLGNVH
Description: (§4) SPR analysis of the binding of the optimized Lcn2 muteins to human and mouse GPC3 was performed at 25° C. on a Biacore T200 instrument (GE Healthcare) using HBS-EP+ (1x; BR-1006-69; GE Healthcare) as running buffer. The Biotin CAPture Kit (GE Healthcare) was used to immobilize biotinylated GPC3 to a chip surface. Human GPC3 (2119-GP; R&D systems) and murine GPC3 (6938-GP; R&D systems) were biotinylated using standard NHS chemistry. Undiluted Biotin CAPture Reagent (streptavidin conjugated with ss-DNA oligo) was captured on a Sensor Chip CAP with the pre-immobilized complementary ss-DNA oligo. Thereafter, biotinylated human or murine GPC3 at 1 μg/ml was applied for 300 s at a flow rate of […].
(§5) Lcn2 muteins were applied in concentrations of 10 nM, 40 nM and 160 nM at a flow rate of 30 μL/min. The dilutions were injected with association times of 180 s and dissociation times of 600 s to obtain ka and kd information. Regeneration of the chip surface was achieved by injecting 6 M Guanidinium-HCl+0.25 M NaOH (120 s) with a flow rate of 10 μL/min. Injection of regeneration solutions was followed by an extra wash step with H₂O and a stabilization period of 120 s.
(§6) The data were double-referenced by subtraction of the corresponding signals measured for the control channel (loaded with Biotin CAPture reagent only) and by subtraction of buffer injections from the binding responses. Association rate constant ka and dissociation rate constant kd for the binding reaction were determined using Biacore T200 Evaluation Software V2.0 for data processing and kinetic fitting. The data were globally fit with 1:1 binding model.

[5] = target: T5, murine GPC3 (6938-GP; R&D systems), biotinylated (murine, UniProt Q8CFZ4 25-558, limits assumed, biotinylated using standard NHS chemistry); test: as above
T5 construct: Bought protein; also called mouse GPC3
T5 sequence (Q8CFZ4 25-558 limits assumed): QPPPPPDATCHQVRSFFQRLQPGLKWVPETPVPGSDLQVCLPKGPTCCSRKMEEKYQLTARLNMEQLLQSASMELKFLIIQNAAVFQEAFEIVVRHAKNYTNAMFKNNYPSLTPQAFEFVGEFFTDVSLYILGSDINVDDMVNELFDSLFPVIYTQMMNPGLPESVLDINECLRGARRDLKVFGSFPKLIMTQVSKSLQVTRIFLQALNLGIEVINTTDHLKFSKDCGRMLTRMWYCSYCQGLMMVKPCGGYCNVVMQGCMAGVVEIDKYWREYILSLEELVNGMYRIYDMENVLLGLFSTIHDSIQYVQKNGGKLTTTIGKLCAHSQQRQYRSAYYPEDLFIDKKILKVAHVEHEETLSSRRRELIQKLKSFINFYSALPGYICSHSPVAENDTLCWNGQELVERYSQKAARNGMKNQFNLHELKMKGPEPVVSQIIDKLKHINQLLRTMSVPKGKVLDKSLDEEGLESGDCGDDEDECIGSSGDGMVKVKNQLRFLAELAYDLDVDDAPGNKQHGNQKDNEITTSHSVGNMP
Description: as §4, §5, §6

T1 sequence (P51654 25-554 limits assumed): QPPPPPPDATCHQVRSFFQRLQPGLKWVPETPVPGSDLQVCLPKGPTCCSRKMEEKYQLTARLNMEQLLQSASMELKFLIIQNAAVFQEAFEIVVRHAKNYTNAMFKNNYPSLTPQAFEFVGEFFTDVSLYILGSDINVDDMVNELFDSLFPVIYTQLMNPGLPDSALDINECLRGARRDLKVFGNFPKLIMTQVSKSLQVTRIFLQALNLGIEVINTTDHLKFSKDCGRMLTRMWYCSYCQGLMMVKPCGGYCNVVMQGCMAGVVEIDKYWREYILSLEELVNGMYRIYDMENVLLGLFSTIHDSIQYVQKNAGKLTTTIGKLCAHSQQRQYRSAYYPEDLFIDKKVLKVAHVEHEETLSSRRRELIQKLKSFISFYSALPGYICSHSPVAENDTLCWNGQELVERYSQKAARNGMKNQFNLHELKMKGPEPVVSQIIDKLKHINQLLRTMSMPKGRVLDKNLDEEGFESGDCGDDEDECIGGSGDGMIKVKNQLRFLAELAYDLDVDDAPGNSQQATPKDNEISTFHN

Binder	EC50 [1] [nM]	EC50 [2] [nM]	EC50 [3] [nM]	Kd [4] [nM]	koff [4] [s⁻¹]	kon [4] [M⁻¹ s⁻¹]	Kd [5] [nM]	koff [5] [s⁻¹]	kon [5] [M⁻¹ s⁻¹]
lipocalin mutein of SEQ ID NO: 8 (designed binder, hNGAL (Lcn2) mutein; also called optimized GPC3 specific lipocalin mutein) QDSTSDLIPAPPLSKVPLQQNFQDNQFQGKWYVVGRAGNVGLREDKDPPKMWATIYELKEDKSYDVTNVRFARKKCLYSIGTFVPGSQPGEFTLGQIKSEPGNTANLVRVVSTNYNQHAMVFFKEVYQNREIFFIILYGRTKELTSELKENFIRFSKSLGLPENHIVFPVPIDQCIDGSAWSHPQFEK	1.4	5.3	2.3	0.068	0.00013	2e+06	0.096	0.00018	1.9e+06
lipocalin mutein of SEQ ID NO: 12 (designed binder, hNGAL (Lcn2) mutein; also called optimized GPC3 specific lipocalin mutein) QDSTSDLIPAPPLSKVPLQQNFQDNQFQGKWYVVGRAGNVALREDKDPPKMRATIYELKEDKSYDVTNVVFAGKKCKYSIGTFVPGSQPGEFTLGRIKSPPGNTANLVRVVSTNYNQHAMVFFKEVYQNREIFFIILYGRTKELTSELKENFIRFSKSLGLPENHIVFPVPIDQCIDGSAWSHPQFEK	2	5.3	1.7	0.037	0.00024	6.5e+06	0.058	0.0003	5.1e+06
lipocalin mutein of SEQ ID NO: 11 (designed binder, hNGAL (Lcn2) mutein; also called optimized GPC3 specific lipocalin mutein) QDSTSDLIPAPPLSKVPLQQNFQDNQFQGKWYVVGRAGNVALREDKDPPKMRATIYELKEDKSYDVTAVRFARKKCLYSIGTFVPGSQPGEFTLGRIKSEPGYTANLVRVVSTNYNQHAMVFFKEVYQNREIFFIILYGRTKELTSELKENFIRFSKSLGLPENHIVFPVPIDQCIDGSAWSHPQFEK	–	–	–	0.027	4.6e-05	1.7e+06	0.011	3.2e-05	2.9e+06
lipocalin mutein of SEQ ID NO: 14 (designed binder, hNGAL (Lcn2) mutein; also called optimized GPC3 specific lipocalin mutein) QDSTSDLIPAPPLSKVPLQQNFQDNQFQGKWYVVGRAGNVGLREDKDPPKMWATIYELKEDKSYDVTNVRFAGKKVKYTIGTFVPGSQPGEFTLGQIKSEPGNTATLVRVVSTNYNQHAMVFFKEVYQNREIFFITLYGRTKELTSELKENFIRFSKSLGLPENHIVFPVPIDQAIDGSAWSHPQFEK	9.5	6.7	15.4	0.819	0.002	2.4e+06	1.59	0.0031	2e+06
lipocalin mutein of SEQ ID NO: 4 (designed binder, hNGAL (Lcn2) mutein; also called non-optimized GPC3-specific Lcn2 mutein; mother clone) QDSTSDLIPAPPLSKVPLQQNFQDNQFHGKWYVVGRAGNVALREDKDPPKMRATIYELKEDKSYNVTNVRFAMKKCMYSIGTFVPGSQPGEFTLGQIKSEPGNTSNLVRVVSTNYNQHAMVFFKEVYQNREIFFITLYGRTKELTSELKENFIRFSKSLGLPENHIVFPVPIDQCIDGSAWSHPQFEK	10.2	7.1	5.7	0.877	0.0022	2.5e+06	1.09	0.0028	2.6e+06
lipocalin mutein of SEQ ID NO: 9 (designed binder, hNGAL (Lcn2) mutein; also called optimized GPC3 specific lipocalin mutein) QDSTSDLIPAPPLSKVPLQQNFQDNQFQGKWYVVGRAGNVGLREDKDPPKMWATIYELKEDKSYDVTNVRFARKKCTYSIGTFVPGSQPGEFTLGQIKSEPGGTANLVRVVSTNYNQHAMVFFKEVYQNREIFFIILYGRTKELTSELKENFIRFSKSLGLPENHIVFPVPIDQCIDGSAWSHPQFEK	1.1	4.1	1.9	0.054	9.8e-05	1.8e+06	0.075	0.00015	2e+06
lipocalin mutein of SEQ ID NO: 10 (designed binder, hNGAL (Lcn2) mutein; also called optimized GPC3 specific lipocalin mutein) QDSTSDLIPAPPLSKVPLQQNFQDNQFQGKWYVVGRAGNGALREDKDPPKMWATIYELKEDKSYDVTNVRFARKKCVYSIGTFVPGSQPGEFTLGPIKSEPGNTASLVRVVSTNYNQHAMVFFKEVYQNREIFFIILYGRTKELTSELKENFIRFSKSLGLPENHIVFPVPIDQCIDGSAWSHPQFEK	0.8	3.8	0.8	0.063	0.00012	1.8e+06	0.093	0.00017	1.8e+06
lipocalin mutein of SEQ ID NO: 13 (designed binder, hNGAL (Lcn2) mutein; also called optimized GPC3 specific lipocalin mutein) QDSTSDLIPAPPLSKVPLQQNFQDNQFQGKWYVVGRAGNLGLREDKDPPKMWATIYELKEDKSYDVTNVRFARKKCMYSIGTFVPGSQPGEFTLGQIKSEPGSTANLVRVVSTNYNQHAMVFFKEVYQNREIFFITLYGRTKELTSELKENFIRFSKSLGLPENHIVFPVPIDQCIDGSAWSHPQFEK	0.9	2.9	0.6	0.07	0.00018	2.6e+06	0.09	0.00024	2.7e+06
lipocalin mutein of SEQ ID NO: 5 (designed binder, hNGAL (Lcn2) mutein; also called optimized GPC3 specific lipocalin mutein) QDSTSDLIPAPPLSKVPLQQNFQDNQFQGKWYVVGVAGNALLREDKDPLKMRATIYELKEDKSYDVTVVSFWRKKCHYKIGTFVPGSQPGEFTLGDIKSGPGQTSNLVRVVSTNYNQHAMVFFKEVRQNREWFAITLYGRTKELTSELKENFIRFSKSLGLPENHIVFPVPIDQCIDGSAWSHPQFEK	24.1	25.6	33.9	0.119	0.0002	1.6e+06	0.207	0.00026	1.3e+06
lipocalin mutein of SEQ ID NO: 6 (designed binder, hNGAL (Lcn2) mutein; also called optimized GPC3 specific lipocalin mutein) QDSTSDLIPAPPLSKVPLQQNFQDNQFQGKWYVVGVAGNVRLREDKDPPKMRATIYELKEDKSYDVTGVSFRGKKCHYKIGTFVPGSQPGEFTLGDIKSGPGETSNLVRVVSTNYNQHAMVFFKEVRQNREWFFITLYGRTKELTSELKENFIRFSKSLGLPENHIVFPVPIDQCIDGSAWSHPQFEK	–	–	–	0.019	3.3e-05	1.8e+06	0.019	4.2e-05	2.2e+06
lipocalin mutein of SEQ ID NO: 3 (designed binder, hNGAL (Lcn2) mutein; also called non-optimized GPC3-specific Lcn2 mutein; mother clone) QDSTSDLIPAPPLSKVPLQQNFQDNQFHGKWYVVGVAGNAMLREDKDPLKMRATIYELKEDKSYNVTGVSFWRKKCHYKIGTFVPGSQPGEFTLGDIKSGPGQTSNLVRVVSTNYNQHAMVFFKEVRQNREWFAITLYGRTKELTSELKENFIRFSKSLGLPENHIVFPVPIDQCIDGSAWSHPQFEK	24.3	29.8	29.9	0.387	0.00022	560000	0.674	0.0003	450000
lipocalin mutein of SEQ ID NO: 7 (designed binder, hNGAL (Lcn2) mutein; also called optimized GPC3 specific lipocalin mutein) QDSTSDLIPAPPLSKVPLQQNFQDNQFQGKWYVVGVAGNGMLREDKDPLKMRATIYELKEDKSYDVTSVAFRNKKCHYKIGTFVPGSQPGEFTLGQIKSGPGETSNLVRVVSTNYNQHAMVFFKEVRQNREWFFITLYGRTKELTSELKENFIRFSKSLGLPENHIVFPVPIDQCIDGSAWSHPQFEK	2.5	4.8	2.8	0.097	0.00013	1.3e+06	0.145	0.00015	1e+06
